Reference: US20200291354A1 (Novartis, published 2020)

Biological target: T1, PD1 (Programmed Death 1) (human, UniProt Q15116 25-288)
T1 construct: whole, on cells
Test: flow cytometry on T cells electroporated with PD1 and minibody mRNA; biotinylated goat anti-human IgG1 and streptavidin-PE
Source text: FIG. 8 is a panel of images and graphs showing detection of PD1 minibody or PD1-PDL1 bispecific minibody bound on T cells. T cells were electroporated with mRNA (PD1, PD1 and PD1 minibody, and PD1 and PD1-PDL1 bispecific minibody) as specified. The T cells were stained with biotinylated goat anti-human IgG1 and then streptavidin-PE. Biotin anti-human IgG1 specifically detected PD1 minibody or PD1-PDL1 bispecific minibody […] when the cells expressed PD1. PD1 expressed on the T cell acted as an anchor for the secreted antibodies to bind that would otherwise not interact with the T cell.
Flow Cytometry Analysis. Tumor cells were cultured in the absence or presence of IFN-γ (R&D systems, Minneapolis, Minn.) at 20 ng/m1 for 24 hrs before the cells were harvested for staining with PDL1-PE (BioLegend). Live cells were gated on the live cell population by forward scatter/side scatter (FSC/SSC) and then PDL-1 positivity by PE expression. K562 cells and K562 PDL1/CD19 cells were stained with PDL1-PE (BioLegend, San Diego, Calif.) and CD19-PacBlue (Life Technologies, Carlsbad, Calif.). […]
FIG. 8 is a panel of images and graphs showing detection of PD1 minibody or PD1-PDL1 bispecific minibody on T cells. […] Biotin anti-human IgG1 specifically detected PD1 minibody or PD1-PDL1 bispecific minibody when the cells expressed PD1. […]

T1 sequence (Q15116 25-288): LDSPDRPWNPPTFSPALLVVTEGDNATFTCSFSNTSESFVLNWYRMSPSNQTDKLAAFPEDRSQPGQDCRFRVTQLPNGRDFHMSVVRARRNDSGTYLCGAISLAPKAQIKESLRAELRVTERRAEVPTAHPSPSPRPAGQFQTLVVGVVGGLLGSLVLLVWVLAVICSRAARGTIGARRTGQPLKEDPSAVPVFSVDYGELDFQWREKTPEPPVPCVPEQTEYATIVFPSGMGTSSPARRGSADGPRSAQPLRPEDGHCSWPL

B1: PD1 minibody (other)
chain: QVQLQESGPGVVKPSGTLSLTCAISGGSIGSGGSIRSTRWWSWVRQSPGKGLEWIGEIYHSGSTNYNPSLKSRVTISLDKSRNHFSLRLNSVTAADTAVYYCARQDYGDSGDWYFDLWGKGTMVTVSSGGGSGGGSGGGSGGGSNFMLTQPHSVSESPGKTVTISCTRSSGSIASNSVQWYQQRPGSSPTTVIYEDNQRPSGVPDRFSGSIDSSSNSASLTVSGLKTEDEADYYCQSSDSSAVVFGSGTKLTVLEPKSCDKTHTCPPCGGGSSGGGSGGQPREPQVYTLPPSRDELTKNQVSLTCLVKGFYPSDIAVEWESNGQPENNYKTTPPVLDSDGSFFLYSKLTVDKSRWQQGNVFSCSVMHEALHNHYTQKSLSLSPGK
notes: Minibody: single chain VH-linker-VL-hinge-CH3, secreted by T cells electroporated with its mRNA; Variable regions are from PD1-17 of U.S. Pat. No. 7,488,802; also called PD1 minbody
binding result: binds
